Assay results reported in patent US5180678A, “Uses of substantially pure interleukin-9 receptor” (Ludwig Institute for Cancer Research, priority 1992, dated 1993).

Experiments:
IL-9R [1] = molecular target: T1, IL-9R (Mus musculus, UniProt Q01114); assay: Competitive binding of radiolabelled rIL-9 to TS1 cells (specificity of IL-9 binding); design: a number of different cell types were tested for the presence of the IL-9R molecule; endogenous in cells; conditions: competitor 6.1 × 10^-10 M; labelled rIL-9 6.1×10^-10 M, 10^6 TS1 cells, 3 h 4° C.; no competitor 4083 ± 16
T1 sequence (Q01114 38-468): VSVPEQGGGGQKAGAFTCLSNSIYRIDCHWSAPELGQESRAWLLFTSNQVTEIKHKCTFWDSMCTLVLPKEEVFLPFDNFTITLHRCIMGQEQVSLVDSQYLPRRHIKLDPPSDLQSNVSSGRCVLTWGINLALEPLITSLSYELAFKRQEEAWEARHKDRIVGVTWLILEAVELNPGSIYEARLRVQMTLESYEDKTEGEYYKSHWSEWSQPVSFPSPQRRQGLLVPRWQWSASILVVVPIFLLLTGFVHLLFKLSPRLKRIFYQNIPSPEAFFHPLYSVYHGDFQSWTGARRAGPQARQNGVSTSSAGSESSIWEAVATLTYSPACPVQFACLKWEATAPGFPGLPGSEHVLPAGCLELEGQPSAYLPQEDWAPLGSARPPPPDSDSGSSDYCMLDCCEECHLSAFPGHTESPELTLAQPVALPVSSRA
Experimental: In order to test whether the radioactive IL-9 would bind to TS1 cells which are mouse cells, which are IL-9 dependent, a competitive assay was carried out. Specifically, rIL-9 was incubated with TS1 cells in 140 ul of DMEM containing BSA (10 mg/ml) and Na3 N (10 mM). In order to determine the level of binding, a 100 fold excess of "cold", i.e., non-radiolabelledIL-9, was also mixed with the material. The rIL-9 was admixed at 6.1×10^-10 M, for three hours at 4° C., with 10^6 TS1 cells. Bound material was separated from free ligand via centrifugation over a layer of dibutyl and dioctyl phthalate (15:I). In addition, the experiments were repeated using various interleukins, interferon-γ ("INF-γ"), tumor necrosis factor ("TNF"), and granulocyte, macrophage colony stimulating factor ("GM-CSF"). All experiments were carried out in triplicate.

IL-9R [2] = molecular target: T1, IL-9R; assay: IL-9 binding to resting and activated T helper clones; design: endogenous in cells; conditions: 7.5×10^-10 M labelled rIL-9
Experimental: The correlation between IL-9 and proliferation of T4 cell lines in response to IL-9 was studied. Resting T cells were collected from two week cultures, and 2×10^6 cells were stimulated by antigen (KLH, 25 ug/ml) in the presence of 70×10^6 & spleen cells for four days. Blasts were isolated by centrifugation and IL-9 binding was determined following incubation with 7.5×10^-10 M labelled rIL-9. Resting cells which had not been restimulated were treated in parallel. Maximal IL-9 induced proliferation was measured by incubation of resting cells in microliter plates (50,000/well), either with or without saturating concentrations of IL-9. Radioactive thymidine incorporation, which was the manner in which proliferation was determined, was measured on day 3.

## IL-9: lymphokine interleukin-9, T-cell derived growth factor; in Tables II and III the 125I-labelled recombinant form is used
IL-9R [1]
  Bound Radioactivity: 1181 ± 123 cpm
IL-9R [2]; T helper clone TUC2.15, antigen (KLH) stimulated blasts
  IL-9 binding Activated Cells: 532 mol/cell
IL-9R [2]; T helper clone TUC2.15
  IL-9 binding Resting Cells: 159 mol/cell
IL-9R [2]; T helper clone TUC7.11
  IL-9 binding Resting Cells: < 10 mol/cell
IL-9R [2]; T helper clone TUC7.33, antigen (KLH) stimulated blasts
  IL-9 binding Activated Cells: < 10 mol/cell
IL-9R [2]; T helper clone TUC7.33
  IL-9 binding Resting Cells: 21 mol/cell
IL-9R [2]; T helper clone TUC7.51, antigen (KLH) stimulated blasts
  IL-9 binding Activated Cells: 514 mol/cell
IL-9R [2]; T helper clone TUC7.51
  IL-9 binding Resting Cells: 94 mol/cell
